Patent US20090042785A1 (Pieris, published 2009)
Substitutions are numbered along the chain they refer to.

T1: human CTLA-4 on the cell surface (transfected CHO and A431 cells; CD152-expressing cells of human tonsil) (human, UniProt P16410 36-223)
T1 construct: whole, on cells; also called CHO-hCTLA-4; CHO::hCTLA-4
T1 sequence (looked up): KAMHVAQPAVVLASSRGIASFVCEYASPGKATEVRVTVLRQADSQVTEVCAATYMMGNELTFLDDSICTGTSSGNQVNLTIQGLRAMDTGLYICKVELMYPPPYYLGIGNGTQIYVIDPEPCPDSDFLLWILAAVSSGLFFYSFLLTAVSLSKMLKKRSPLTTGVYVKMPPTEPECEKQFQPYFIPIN

B1: S140.4-O10-ABD (fusion with the albumin binding domain of streptococcal protein G) (designed binder)
chain: QDSTSDLIPAPPLSKVPLQQNFQDNQFHGKWYVVGLAGNRILRDDQHPMNMYATIYELKEDKSYNVTSVISSHKKCEYTIATFVPGSQPGEFTLGNIKSYGDKTSYLVRVVSTDYNQYAVVFFKLAEDNAEFFAITIYGRTKELASELKENFIRFSKSLGLPENHIVFPVPIDQCIDGSGGAVDANSLAEAKVLANRELDKYGVSDYYKNLINNAKTVEGVKALIDEILAALPSAWSHPQFEK
notes: Original linker of protein G between mutein and ABD; also called Onc I-004
B2: hNGAL mutein S140.4-O10 (designed binder)
chain: QDSTSDLIPAPPLSKVPLQQNFQDNQFHGKWYVVGLAGNRILRDDQHPMNMYATIYELKEDKSYNVTSVISSHKKCEYTIATFVPGSQPGEFTLGNIKSYGDKTSYLVRVVSTDYNQYAVVFFKLAEDNAEFFAITIYGRTKELASELKENFIRFSKSLGLPENHIVFPVPIDQCIDG
notes: also called Onc I-002
B3: S140.4-O10 site-directed PEGylated at Cys 87 with 20k PEG (designed binder)
chain: QDSTSDLIPAPPLSKVPLQQNFQDNQFHGKWYVVGLAGNRILRDDQHPMNMYATIYELKEDKSYNVTSVISSHKKCEYTIATFVPGCQPGEFTLGNIKSYGDKTSYLVRVVSTDYNQYAVVFFKLAEDNAEFFAITIYGRTKELASELKENFIRFSKSLGLPENHIVFPVPIDQCIDGSAWSHPQFEK
modifications: chain 1 pos 87: Cys carrying linear 20 kDa PEG-maleimide, written C
notes: also called O10_PEG(20k); S140.4-O10-PEG (20k)
B4: S140.4-O10 site-directed PEGylated at Cys 87 with 30k PEG (designed binder)
chain: B3 chain
modifications: chain 1 pos 87: Cys carrying linear 30 kDa PEG-maleimide, written C
notes: also called O10_PEG(30k); S140.4-O10-PEG(30k)
B5: S140.4-O10 site-directed PEGylated at Cys 87 with 12k PEG (designed binder)
chain: B3 chain
modifications: chain 1 pos 87: Cys carrying linear 12k PEG-maleimide on its thiol, written C
notes: also called O10_PEG(12k); O10_S87C PEGylated monomer
B6: hNGAL mutein F92.1-J08 (designed binder)
chain: QDSTSDLIPAPPLSKVPLQQNFQDNQFHGKWYVVGLAGNRILRDDQHPMNMYATIYELKEDKSYNVTSVIFPHKKCEYTIATFVPGSQPGEFTLGNIKSYGDKTSYLVRVVSTNYNQYAVVFFKLAEDNAEFFAITIYGRTKELASELKENFIRFSKSLGLPENHIVFPVPIDQCIDGSAWSHPQF
notes: also called CTLA-4-J08
B7: hNGAL mutein S140.1-F09 (designed binder)
chain: B2 chain with D114N
notes: tagged entry not tied to the name; not shown: N-terminal T7 detection tag from vector phNGAL37; C-terminal Strep-tag II from vector phNGAL37
B8: hNGAL mutein S140.2-P24 (designed binder)
chain: B2 chain with N50D, N116S
notes: as for B7
B9: hNGAL mutein S140.4-B16 (designed binder)
chain: B2 chain with S71F, S72P, G95S, N96D
notes: as for B7
B10: hNGAL mutein S140.3-P07 (designed binder)
chain: B2 chain with S71F, S72P, N129D
notes: as for B7
B11: S140.4-O10_E143C PEGylated with 12k PEG-maleimide (designed binder)
chain: B2 chain with E143C
modifications: 12k PEG-maleimide on Cys 143
notes: also called O10_E143C PEGylated monomer
B12: S140.4-O10_T141C PEGylated with 12k PEG-maleimide (designed binder)
chain: B2 chain with T141C
modifications: 12k PEG-maleimide on Cys 141
notes: also called O10_T141C PEGylated monomer
B13: S140.4-O10_V84C PEGylated with 12k PEG-maleimide (designed binder)
chain: B2 chain with V84C
modifications: 12k PEG-maleimide on Cys 84
notes: also called O10_V84C PEGylated monomer
B14: S140.4-O10_A145C PEGylated with 12k PEG-maleimide (designed binder)
chain: B2 chain with A145C
modifications: 12k PEG-maleimide on Cys 145
notes: also called O10_A145C PEGylated monomer
B15: S140.4-O10_S146C PEGylated with 12k PEG-maleimide (designed binder)
chain: B2 chain with S146C
modifications: 12k PEG-maleimide on Cys 146
notes: also called O10_S146C PEGylated monomer
B16: control lipocalin hNGAL wt58 (other)
chain: QDSTSDLIPAPPLSKVPLQQNFQDNQFHGKWYVVGLAGNAILREDKDPQKMYATIYELKEDKSYNVTSVLFRKKKCDYWIRTFVPGSQPGEFTLGNIKSYPGLTSYLVRVVSTNYNQHAMVFFKKVSQNREYFKITIYGRTKELASELKENFIRFSKSLGLPENHIVFPVPIDQCIDG
notes: also called hNGAL-58; hNGAL58
B17: hNGAL mutein S94.7-Q13 (designed binder)
chain: B6 chain with Y118H, V120T
notes: also called CTLA-4-Q13
B18: S140.4-O10-CH4 (fusion with the CH4 domain of the human IgE-Fc portion) (designed binder)
chain: QDSTSDLIPAPPLSKVPLQQNFQDNQFHGKWYVVGLAGNRILRDDQHPMNMYATIYELKEDKSYNVTSVISSHKKCEYTIATFVPGSQPGEFTLGNIKSYGDKTSYLVRVVSTDYNQYAVVFFKLAEDNAEFFAITIYGRTKELASELKENFIRFSKSLGLPENHIVFPVPIDQCIDGSTTKTSGPRAAPEVYAFATPEWPGSRDKRTLACLIQNFMPEDISVQWLHNEVQLPDARHSTTQPRKTKGSGFFVFSRLEVTRAEWEQKDEFICRAVHEAASPSQTVQRAVSVNPESSRSGGCSAWSHPQFEK
modifications: The molecule is a homodimer formed through the CH4 domain (the patent calls it the CH4-dimer). One copy of the chain is given.
notes: Fused for dimerization; CH4 domain between the mutein and the C-terminal Strep tag; also called CH4-dimer

Each binder was assayed against T2, human CTLA-4-Fc (Chimerigen) (human, UniProt P16410 36-161; P01857 99-330 = IgG part, limits assumed) (assay: ELISA towards hCTLA-4-Fc).
T2 construct: extracellular domain;domain: Fc portion; Bought protein; also called hCTLA-4-Fc; huCTLA-4-Ig
Target sequence in this assay (P16410 other isoform, or with tags, fused parts or gaps mutant limits assumed): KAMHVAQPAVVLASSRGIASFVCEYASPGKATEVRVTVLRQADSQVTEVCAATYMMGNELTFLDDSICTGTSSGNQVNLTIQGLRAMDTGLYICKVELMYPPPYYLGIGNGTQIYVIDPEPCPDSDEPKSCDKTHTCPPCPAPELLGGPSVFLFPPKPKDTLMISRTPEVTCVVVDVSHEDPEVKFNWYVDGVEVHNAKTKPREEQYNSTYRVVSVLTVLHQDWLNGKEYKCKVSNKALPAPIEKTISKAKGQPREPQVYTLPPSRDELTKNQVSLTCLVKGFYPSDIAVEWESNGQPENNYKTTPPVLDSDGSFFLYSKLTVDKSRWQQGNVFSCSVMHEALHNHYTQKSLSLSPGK

Binder	ELISA affinities [nM]
B1	3.3
B2	3.8
B3	3.6
B4	3
B5	3.2

The binders below were run against T2, human CTLA-4-Fc (Chimerigen) (assay: SPR; KD listed beside Tm).
Target sequence in this assay (P16410 other isoform, or with tags, fused parts or gaps mutant limits assumed): as above

Binder	Kd [nM]
B6	12.8
B2	8.3
B7	7.8
B8	20
B9	68
B10	29

What follows are binders tested against T3, mCTLA-4-Fc (R&D Systems) (mouse, UniProt P09793 36-162) (assay: SPR; KD listed beside Tm).
T3 sequence (P09793 whole entry): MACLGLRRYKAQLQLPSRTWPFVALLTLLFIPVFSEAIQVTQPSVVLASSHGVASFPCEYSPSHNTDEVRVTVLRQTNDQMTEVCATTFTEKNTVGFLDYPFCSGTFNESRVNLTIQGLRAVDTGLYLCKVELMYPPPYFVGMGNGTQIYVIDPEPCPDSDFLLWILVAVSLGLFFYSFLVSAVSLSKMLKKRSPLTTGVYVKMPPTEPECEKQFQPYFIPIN

Binder	Kd [nM]
B2	40.8
B7	27.9
B8	47
B9	112
B10	98

What follows are binders tested against T2, human CTLA-4-Fc (Chimerigen) (assay: SPR-Affinity of the PEGylated monomer towards hCTLA-4-Fc).
Target sequence in this assay (P16410 other isoform, or with tags, fused parts or gaps mutant limits assumed): as the sequence (P16410 other isoform, or with tags, fused parts or gaps mutant limits assumed) above

Binder	Kd [nM]
B11	85
B12	69
B13	97
B14	50
B15	50
B5	26

The binders below were run against T2, human CTLA-4-Fc (Chimerigen) (assay: SPR as in Example 9).
Target sequence in this assay (P16410 other isoform, or with tags, fused parts or gaps mutant limits assumed): as above

Binder	Kd [nM]	koff [s⁻¹]	kon [M⁻¹ s⁻¹]
B6	12.8	0.000116	9240
B2	8.3	0.000221	15300
B7	7.8	~9.2e-05	11800
B8	20	0.00028	14000
B9	68	0.000418	6160
B10	29	0.000319	11000

Each binder was assayed against T3, mCTLA-4-Fc (R&D Systems) (assay: SPR as in Example 9).

Binder	Kd [nM]	koff [s⁻¹]	kon [M⁻¹ s⁻¹]
B2	40.8	0.00049	11900
B7	27.9	0.000379	14000
B8	47	0.000705	15000
B9	112	0.00056	5000
B10	98	0.000666	6800

These binders were tested against T1, human CTLA-4 on the cell surface … (assay: indirect immunoperoxidase staining of cryosections; column Negative Control Antibody [Isotype-matched hNGALwt_58]).

Binder	binding result
B16	no binding (tested: 40 µg/mL)

Each binder was assayed against T2, human CTLA-4-Fc (Chimerigen) (assay: Affinity-ELISA of the PEGylated monomer towards hCTLA-4-Fc).
Target sequence in this assay (P16410 other isoform, or with tags, fused parts or gaps mutant limits assumed): as above

Binder	ELISA-Affinity PEGylated Monomer [nM]
B11	103
B12	82
B13	100
B14	74
B15	100
B5	52

Each binder was assayed against T2, human CTLA-4-Fc (Chimerigen) (assay: competition FACS: HuCTLA4-Ig 10 ug/ml pre-incubated with the antagonist, then staining of P815 cells transfected with human B7.2; blocked ligand B7.2).

Binder	IC50 (read off the curve) [µg/mL]
B17	~5

Each binder was assayed against T2, human CTLA-4-Fc (Chimerigen) (assay: SPR, Fc fusion captured via anti-human IgG Fc).
Target sequence in this assay (P16410 other isoform, or with tags, fused parts or gaps mutant limits assumed): as above

Binder	Kd [nM]	koff [s⁻¹]	kon [M⁻¹ s⁻¹]
B17	11.8	7.1e-05	6000
B6	12.8	0.000116	9240

What follows are binders tested against T3, mCTLA-4-Fc (R&D Systems) (assay: SPR, Fc fusion captured via anti-human IgG Fc).

Binder	Kd [nM]	koff [s⁻¹]	kon [M⁻¹ s⁻¹]
B17	39.5	0.00017	4300

These binders were tested against T2, human CTLA-4-Fc (Chimerigen) (assay: SPR-Affinity towards hCTLA-4-Fc).

Binder	Kd [nM]
B1	8.9
B18	0.8
B2	3.7
B3	11
B5	20

The binders below were run against T2, human CTLA-4-Fc (Chimerigen) (assay: competition FACS: 2.5 nM human CTLA-4 Fc pre-incubated with the antagonist, then staining of Raji cells; % inhibition of CTLA-4 Fc binding; blocked ligands B7.1 and B7.2).

Binder	IC50 (read off the curve) [nM]
B1	~4
B2	~2
B3	~4
